Laboratory results taken from article PMC3527552.

How the values were obtained:
[1] = total cell lysate anti-HA Western blot; details: glycan lost; control: wild type
[2] = confocal immunofluorescence, colocalisation with calnexin; details: glycan lost; control: wild type
[3] = cell surface biotinylation, anti-HA Western blot; details: glycan lost; control: wild type
[4] = 0.1 μM E-3-S uptake, 2 min, HEK293; details: glycan lost; control: wild type
[5] = cell lysate anti-HA Western blot; details: glycan lost; control: untreated

B1: OATP1B1: N134/503/516Q (protein)
parent chain: MDQNQHLNKTAEAQPSENKKTRYCNGLKMFLAALSLSFIAKTLGAIIMKSSIIHIERRFEISSSLVGFIDGSFEIGNLLVIVFVSYFGSKLHRPKLIGIGCFIMGIGGVLTALPHFFMGYYRYSKETNINSSENSTSTLSTCLINQILSLNRASPEIVGKGCLKESGSYMWIYVFMGNMLRGIGETPIVPLGLSYIDDFAKEGHSSLYLGILNAIAMIGPIIGFTLGSLFSKMYVDIGYVDLSTIRITPTDSRWVGAWWLNFLVSGLFSIISSIPFFFLPQTPNKPQKERKASLSLHVLETNDEKDQTANLTNQGKNITKNVTGFFQSFKSILTNPLYVMFVLLTLLQVSSYIGAFTYVFKYVEQQYGQPSSKANILLGVITIPIFASGMFLGGYIIKKFKLNTVGIAKFSCFTAVMSLSFYLLYFFILCENKSVAGLTMTYDGNNPVTSHRDVPLSYCNSDCNCDESQWEPVCGNNGITYISPCLAGCKSSSGNKKPIVFYNCSCLEVTGLQNRNYSAHLGECPRDDACTRKFYFFVAIQVLNLFFSALGGTSHVMLIVKIVQPELKSLALGFHSMVIRALGGILAPIYFGALIDTTCIKWSTNNCGTRGSCRTYNSTSFSRVYLGLSSMLRVSSLVLYIILIYAMKKKYQEKDINASENGSVMDEANLESLNKNKHFVPSAGADSETHC
expression_or_secretion [1]: decreases | localisation_or_trafficking [2]: changes | expression_or_secretion, percent_of_wt [3]: decreases

B2: OATP1B1: N516Q (protein)
parent chain: B1 parent chain
expression_or_secretion, percent_of_wt [3]: no change | other: transport activity [4]: no change

B3: OATP1B1: N134Q (protein)
parent chain: B1 parent chain
expression_or_secretion, percent_of_wt [3]: no change | other: transport activity [4]: no change

B4: OATP1B1: tunicamycin 0.5 μg/ml, 42 h (protein)
parent chain: B1 parent chain
expression_or_secretion [5]: decreases

B5: OATP1B1: N134/617Q (protein)
parent chain: B1 parent chain
expression_or_secretion, percent_of_wt [3]: no change | other: transport activity [4]: no change

B6: OATP1B1: N134/516Q (protein)
parent chain: B1 parent chain
expression_or_secretion, percent_of_wt [3]: no change | other: transport activity [4]: no change

B7: OATP1B1: N134/432Q (protein)
parent chain: B1 parent chain
expression_or_secretion, percent_of_wt [3]: no change | other: transport activity [4]: no change

B8: OATP1B1: N134/503Q (protein)
parent chain: B1 parent chain
expression_or_secretion, percent_of_wt [3]: no change | other: transport activity [4]: no change

B9: OATP1B1: N503Q (protein)
parent chain: B1 parent chain
expression_or_secretion, percent_of_wt [3]: no change | other: transport activity [4]: no change
